In US20060257492A1, “Suspension of calcium phosphate particulates for local delivery of therapeutic agents” (DePuy Products, Inc., priority 2005, published 2006):

Experiments:
[1] = Osteocalcin adsorption, elution and dissolution test on biomimetic apatite (HPLC); type: physicochemical; conditions: 20 μg protein
Protocol: The test with osteocalcin was conducted by incubating biomimetic apatite prepared on Ti6Al4V substrates with phosphate buffered saline (PBS) containing 0.1 mg/mL (bovine serum albumin) BSA. […] Eighty five percent of the original protein (20 μg) is adsorbed by biomimetic apatite crystals within 3 hours of test. An elution test was designed to further test the affinity of biomimetic apatite to osteocalcin in PBS containing 0.1 mg/mL BSA was measured (FIG. 6). Only ˜6% of the originally applied protein (20 μg) was eluted out from the biomimetic apatite crystals after 20 hours of incubation.

[2] = TGF-β1 adsorption, elution and dissolution test on biomimetic apatite (HPLC); type: physicochemical
Protocol: A parallel study was designed for testing the interaction between biomimetic apatite mineral with TGF-β1 by using a sodium acetate buffer containing 0.1 mg/mL BSA. […] Fifty five percent of growth factor (20 μg) was adsorbed by biomimetic apatite crystallites after 4 hours. Ten percent additional protein was adsorbed in the next 20 hour.

Substance	originally applied protein eluted out from the biomimetic apatite crystals ([1]; PBS containing 0.1 mg/mL BSA, after 20 hours of incubation) [%]	original protein adsorbed by biomimetic apatite crystals ([1]; PBS containing 0.1 mg/mL BSA, within 3 hours)	protein recovered after dissolution of the minerals in acid ([1]; minerals fully dissolved in acid) [%]	growth factor adsorbed by biomimetic apatite crystallites ([2]; 20 μg, sodium acetate buffer containing 0.1 mg/mL BSA, after 4 hours)	elution and dissolution profiles ([2]; compared with osteocalcin)	additional protein adsorbed ([2]; sodium acetate buffer containing 0.1 mg/mL BSA, in the next 20 hour)
osteocalcin (YLYQWLGAPVPYPDPLEPRREVCELNPDCDELADHIGFQEAYRRFYGPV; UniProt P02818 52-100, looked up)	~6	Eighty five	~64	–	–	–
transforming growth factor-beta-1 [TGF-β1]	–	–	–	Fifty five	very similar to those of osteocalcin	Ten
